Measurements taken from the nanobody polyreactivity screen of Harvey et al. (2022).

Assay: yeast display, Sf9 membrane polyspecificity reagent, FACS + sequencing; frameworks hold sequencing errors
Summary of the method: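 A synthetic nanobody library was expressed on Saccharomyces cerevisiae BJ5465 by galactose induction for 36–48 hours. The library was stained for 1 hour at 4 °C with 10% biotinylated, detergent-solubilized Sf9 membrane reagent and enriched with streptavidin microbeads before FACS. Low and high (top ~1%) gates were set on anti-HA fluorescence for expression and streptavidin fluorescence for reagent binding, and each polyreactivity label reflects the gate of origin.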

Sequence	polyreactivity (PSR sort gate)
QVQLVESGGGLVQAGGSLRLSCAASGITFWFNAMGWYRQAPGQERELVAAITSGVDTNYADSVKGRFTISRDNAKNTVYLQMNSLIPEDTAVYYCAAQGGRLKRGRTTSDYWGQGTQVTVSS	low polyreactivity
QVQLVESGGGLVQAGGSLRLSCAASGITFWHNTMGWYRQAPGKERELVAAISWTGGRTYYADSVKGRFTISRDNAKNSVYLQMNSLKPEDTPVYYCAADFSWTPSGNYDSWGQGTQVTVSS	low polyreactivity
QVQLVESGGGLVQAGGSLRLSCAASGITFWVYAMGWYRQAPGKERELVAAISRRGGSTSYADSVKGRFTISRDNAKNTVYLQMNSLKPEDTAVYYCAATTYTHPYGYWGQGTQVTVSS	high polyreactivity
QVQLVESGGGLVQAGGSLRLSCAASGITFWYYAMGWYRQAPGKERELVAAITGGDSTNYADSVKGRFTISRDNAKNTVYLQMNSLKPEDTAVYYCNAEGSYEGYDDYWGQGTQVTVSS	high polyreactivity
QVQLVESGGGLVQAGGSLRLSCAASGITFWYYAMGWYRQAPGKERELVAVISRGGSTYYADSVKGRFTISRDNAKNTVYLQLNSLKPEDTAVYYCAARPRWYTYTRQEYDYWGQGTQVTVSS	high polyreactivity
QVQLVESGGGLVQAGGSLRLSCAASGITFWYYTMGWYRQAPGKERELVARITSGSRTSYADSVKGRFTISRDNAKNTVYLQMNSLKPEDTAVYYCAAGSYADRLWSKYNYWGQGTQVTVSS	high polyreactivity
QVQLVESGGGLVQAGGSLRLSCAASGITFYDNVMGWYRQAPGKERELVAAITSGGSTNYADSVKGRFTISRDNAKNTVYLQMNSLKPEDTAVYYCAAQTRVDYEFPYRYGYWGQGTQVTVSS	low polyreactivity
QVQLVESGGGLVQAGGSLRLSCAASGITFYDYAMGWSRQAPGKDRELVSAINSSGVRTYYADSVKGRFTISRDNAKNTVYLQMNSLKPEDTAVYYCAAERYYYFVPYWYDYWGQGTQVTVSS	high polyreactivity
QVQLVESGGGLVQAGGSLRLSCAASGITFYDYAMGWYRQAPGKERELVAVITRRGGSTYYADSVKGRFTISRDNAKNTVYIQMNSLKPEDTAVYYCAADWRVWSFVRGVDYWGQGTQVTVSS	high polyreactivity
QVQLVESGGGLVQAGGSLRLSCAASGITFYFNTMGWYRQAPGKERELVASISGGSSTYYADSVKGRFTISRDNAKYTVYLQMNSLKPEDTAVYYCNAQGSLFRGWFDYDYWGQGTQVTVSS	low polyreactivity
QVQLVESGGGLVQAGGSLRLSCAASGITFYGNAMGWYRQAPGKERELVAAITYSGTSTYYADSVKGRFTISRDNAKNTVYLQMNSLKPEDTAVYYCAADEWYLVDYWGQGTQVTVSS	low polyreactivity
QVQLVESGGGLVQAGGSLRLSCAASGITFYGNAMGWYRQAPGKERELVAGISSGGSTSYADSVKGRFTISRDNAKNTVYLQMNSLKPEDTAVYYCAKRWYYGTRYGTSYIRDYWGQGTQVTVSS	high polyreactivity
QVQLVESGGGLVQAGGSLRLSCAASGITFYGYAMGWYRQAPGKEREFVAAISASGGSTYYADSVKGRFTISRDNAKNTVYLQMNSLKPEDTAVYYCAALVRGAYGYGYWGQGTQVTVSS	high polyreactivity
QVQLVESGGGLVQAGGSLRLSCAASGITFYGYAMGWYRQAPGKERELVAAISSRGGSTYYADSVKGRFTISRDNAKNTVYLQMNRLKPEDTAVYYCAAVYYTGEYYYWGQGTQVTVSS	high polyreactivity
QVQLVESGGGLVQAGGSLRLSCAASGITFYGYAMGWYRQAPGKERELVAAITRGGSTNYADSVKGRFTISRDNAKITPYLQMNSLKPEDTAVYYCNTYVGRRPGYGYWGQGTQVTVSS	high polyreactivity
QVQLVESGGGLVQAGGSLRLSCAASGITFYGYAMGWYRQAPGKERELVAAITRGGSTNYADSVKGRFTISRDNAKNTVYLQMNSLKPEDTAVYYCAAEYSVYWYYRYEYWGQGTQVTVSS	high polyreactivity
QVQLVESGGGLVQAGGSLRLSCAASGITFYGYAMGWYRQAPGKERELVARITASGGSTYYADSVKGRFTISRDNAKNTVYLQMKSLKPEVTAVYYCAKDWYRYSRFDYWGQGTQVTVSS	high polyreactivity
QVQLVESGGGLVQAGGSLRLSCAASGITFYGYDKGWYRQAPGKERELGAAITSDGITNYADSVKGRFTISRDNAKNTVYLQMNSLKPEDTAVYYCAADLSFYRRYEWYYYWGQGTQVTVSS	low polyreactivity
QVQLVESGGGLVQAGGSLRLSCAASGITFYGYDMGWYRQAPAKERELVAAITSDGITNYADSVKGRFTISRDNAKNTVYLQMNSLKPEDTAVYYCNAVFRPGSFLYDWRAYDYWGQGTQVTVSS	low polyreactivity
QVQLVESGGGLVQAGGSLRLSCAASGITFYGYTMGWYRQAPGKERELVAAITSGGITYYADSVKGRFTISRDNAKNTVYLQMNSLKPEDTAVYYCNADDVWYEYDYWGEGTQVTVSS	high polyreactivity
QVQLVESGGGLVQAGGSLRLSCAASGITFYHYAMGWYRQAPGKERELVAAISSDDNTNYADSVKGRFTISRDNEKNTVYLQMNSLNPEVTAVYYCNKRSLKNEPRYDYWGQGTQVTVSS	high polyreactivity
QVQLVESGGGLVQAGGSLRLSCAASGITFYIYAMGWYRQAPGKERELVATISWSDGRTYYADSVKGRFTISRDNAKTTVYLQMNSLKPEDTAVYYCAADWWYYQFDYEYWGQGTQVTVSS	low polyreactivity

Sequence	polyreactivity (PSR sort gate)
QVQLVESGGGLVQAGGSLRLSCAASGITFYPNDMGWYRQAPGKERELVAAITTNDGDTYYADSVKGRFTISRDKAKNTVYLQMNSLKPEDTAVYYCAAASGSTSEYEYWGQGTQVTVSS	low polyreactivity
QVQLVESGGGLVQAGGSLRLSCAASGITFYPYTMGWYRQAPGKERELVASISTSGTNYADSVKGRFTISRDNAKNTVYLQMNSLKPEDTAVYYCAADIWSYYRSTHVDSWGQGTQVTVSS	low polyreactivity
QVQLVESGGGLVQAGGSLRLSCAASGITFYRNAMGWYRQAPGKEREFVAAITSSGGSTYYADSVKGRFTISRDNAKNTVYLQMNSLKPEDTAVYYCRPGRWRVSHKYDYWGQGTQVTVSS	high polyreactivity
QVQLVESGGGLVQAGGSLRLSCAASGITFYRYAKGSYRQAPGKERELVAAIRRAGSTYYADSVKGRVTISRDNAKKTVYLQMNSLKPEDTAVYYCNARYGIGMNYWGQGTQVTVSS	high polyreactivity
QVQLVESGGGLVQAGGSLRLSCAASGITFYRYAMGWYRQAPGKERELVAAISTSGGTTYYADSVKERFTISRDNAKNTVYLQMNSLKPEDTAVYYCAAQYLRWSRMDYWGQGTQVTVSS	high polyreactivity
QVQLVESGGGLVQAGGSLRLSCAASGITFYRYAMGWYRQAPGKERELVAAITSSGGSTYYADSVKGRFTISRDNAKNTVYLQMNSLKPQDTAVYYCAARDLGRYPPKLYYWGQGTQVTVSS	high polyreactivity
QVQLVESGGGLVQAGGSLRLSCAASGITFYRYAMGWYRQAPGTEREVVATITSGGSTYYADSVKGRFTISRDNAKNTVYLQMNSLKPEDTAVYYCAAESVWTWYYTTAGMDYWGQGTQVTVSS	high polyreactivity
QVQLVESGGGLVQAGGSLRLSCAASGITFYRYMGWYRQAPGKERELVASITGRGGSTYYADSVKGRFTISRDNAKNTVYLQMNSLKPEDTAVYYCAARSYARPGGSRFDYWGQGTQVTVSS	high polyreactivity
QVQLVESGGGLVQAGGSLRLSCAASGITFYRYTMGWYRQAPGKERELVATITSGASTSYADSVKGRFTISRDNAKNTVYLQMNSLKPEDTAVYYCAARRTRVTGRYSVYAFDYWGQGTQVTVSS	low polyreactivity
QVQLVESGGGLVQAGGSLRLSCAASGITFYRYVMGWYRQAPGKERELVAAITTGDSTYYADSVKGRFTISRDNAKNTVYLQMNSLKPEDTAVYFCAAVYYTALANYDYWGQGTQVTVSS	low polyreactivity
QVQLVESGGGLVQAGGSLRLSCAASGITFYTNAMGWYRQAPGKERELVAGISSSSGSTYYADSVKGRFTISRDNAKNTVYLQMNSLKPEDTAVYYCAADQDSTASDYKEYGYWGQGTQVTVSS	low polyreactivity
QVQLVESGGGLVQAGGSLRLSCAASGITFYVKDMGWYRQAPGKEREFVAAISYRGGSTYYADSVKGRFTISRDNAKNTVYLQMNSLKPEDTAVYYCAADYNYWSPHRYDYWGQGTQVTVSW	low polyreactivity
QVQLVESGGGLVQAGGSLRLSCAASGITFYVYALGWYRQAPGKARALVAANNYDSGSTYYADSEKGRFTISRDNAKNTVYIQKNSLKPEDTAGYYCATDGVNPFYAYDYWGQGTQVTVSS	low polyreactivity
QVQLVESGGGLVQAGGSLRLSCAASGITFYVYTMGWDRQAPGKERELVAAITWSGGSTYYADSVKGRFTISRDNAKNTVYLQMKSLKPEDTAVYYCNRVGYWVGLDSWGQGTQVTVSS	high polyreactivity
QVQLVESGGGLVQAGGSLRLSCAASGITFYWYAMGWYRQAPGKERELVAAITRSVGSTYYADSVKGRFSISRDNAKNPVYLQMNSLKPEDTAVYYCAADFYYYGFDYWGQGTQVTVSS	low polyreactivity
QVQLVESGGGLVQAGGSLRLSCAASGITFYYNAMGWYRQAPGKERELVAAIRSAGSTYYADSVKGRFTISRDNAKNSVYVQMNSLKPEDTAVDYWGQGTQVTVSS	low polyreactivity
QVQLVESGGGLVQAGGSLRLSCAASGITFYYNAMGWYRQAPGKERELVADISARGGSTYYADSVKGRFTISRDNAKNTVYLQMNCLIPEDTAVYYCNTYPKKKRPNEYDYWGQGTQVSVSS	high polyreactivity
QVQLVESGGGLVQAGGSLRLSCAASGITFYYYAKGWYRQAPGKERELVSAISFRGGSTYYADSVKGRFTISRDNAKNSVYLQMNSLKPEDTAVYYCAAETSRSWYTWVSYDYWGQGTQVNVSS	high polyreactivity
QVQLVESGGGLVQAGGSLRLSCAASGITFYYYAMGWYRQAPGKERELVASISQSGGSTYYAASVKGRFSISRDNAKNTVYLQMNSLKPEDTAVYYCAADPGRYYPMYYWGQGTQVTVSS	low polyreactivity
QVQLVESGGGLVQAGGSLRLSCAASGITFYYYVMGWYRQAHGKERELVAAISNRGGSTYYADSVKGRFTISRDNAKNTVYLQMNSLKPDDTAVYYCAAYPLSGYDYWGQGTQVTVSS	high polyreactivity
QVQLVESGGGLVQAGGSLRLSCAASGITIARYAMGWYRQAPGKERELVAAITRSGGRTYYADSVKGRFTISRDNAKITVYLQMKSLKPEDTAVYYCYNVTRGKNHGTKYDYWGQGTQVTVSS	high polyreactivity
